From patent US20150175665A1 (IPSEN PHARMA S A S, published 2015)
[ ]: non-standard residue; d: D form. The star is where a group is joined. Desaminotyrosyl = O=C(CCc1ccc(O)cc1)*; Hyp = O=C(O)[C@@H]1C[C@@H](O)CN1; Pip = O=C(O)[C@@H]1CCCCN1; Ac6c = NC1(C(=O)O)CCCCC1

T1: human recombinant GIP receptor (human, UniProt P48546 22-466)
T1 construct: whole, on cells; Assayed as washed membranes of CHO-K1 cells expressing the receptor; also called hGIP receptor
T1 sequence (looked up): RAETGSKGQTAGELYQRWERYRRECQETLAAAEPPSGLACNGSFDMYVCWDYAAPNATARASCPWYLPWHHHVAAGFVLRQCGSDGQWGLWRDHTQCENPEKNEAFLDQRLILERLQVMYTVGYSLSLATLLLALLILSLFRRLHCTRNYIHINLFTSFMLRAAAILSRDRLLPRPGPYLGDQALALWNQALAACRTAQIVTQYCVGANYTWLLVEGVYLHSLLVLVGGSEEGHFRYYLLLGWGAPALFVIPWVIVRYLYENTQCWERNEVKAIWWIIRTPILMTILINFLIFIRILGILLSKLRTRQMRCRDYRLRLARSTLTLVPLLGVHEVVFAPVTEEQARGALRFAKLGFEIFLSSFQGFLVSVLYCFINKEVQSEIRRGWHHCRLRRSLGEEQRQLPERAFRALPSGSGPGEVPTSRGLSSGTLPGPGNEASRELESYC


These binders were tested against T1, human recombinant GIP receptor (assay: displacement of [125I]GIP, membranes of CHO-K1 cells expressing human GIP receptor).
Experimental: Membranes for in vitro receptor binding assays were prepared by homogenizing the CHO—K1 clonal cells expressing the human recombinant GIP receptor, with a Brinkman Polytron (setting 6, 15 sec), in ice-cold 50 mM Tris-HCl and then subjected to two centrifugations at 39,000 g for 10 minutes, with a resuspension in fresh buffer in between. For the assay, aliquots of the washed membrane preparations were incubated (100 minutes at 25° C. with 0.05 nM [¹²⁵1]GIP (2200 Ci/mmol) in 50 mM Tris-HCl, 0.1 mg/ml bacitracin, and 0.1% BSA. The final assay volume was 0.5 ml. The incubations were terminated by rapid filtration through GF/C filters (pre-soaked in 0.5% polyethylenimine) using a Brandel filtration manifold. Each tube and filter were then washed three times with 5-ml aliquots of ice-cold buffer.
Specific binding was defined as the total radioligand bound minus that bound in the presence of 1000 nM GIP.

| Binder | Ki [nM] |
| --- | --- |
| XXEGTFISDYSIAXDKIHQQDFVNWLLAQK (4Hppa at 1; Aib at 2; Nle at 14; C-terminal amide) [(4Hppa^1, Aib^2, Nle^14)hGIP(1-30)-NH2] | 2.95 |
| XXEGTFISDYSIAMDKIHQQDFVNWLLAQK (4Hppa at 1; Aib at 2; C-terminal amide) [(4Hppa^1, Aib^2)hGIP(1-30)-NH2] | 1.58 |
| YXEGTFISDYXIAXDKIHQQDFVNWLLAQKGKKNDWKHNITQH (3Br-Tyr at 1; Aib at 2; A5c at 11 and 14) [(3Br-Tyr^1, Aib^2, A5c^11, 14, His^43)hGIP(1-43)-OH] | 0.92 |
| XXEGTFISDYXIAXDKIHQQDFVNWLLAQKGKKNDWKHNIXQH (3MeO-Tyr at 1; Aib at 2; A5c at 11, 14 and 41) [(3MeO-Tyr^1, Aib^2, A5c^11, 14, 41-His^43)hGIP(1-43)-OH] | 6.4 |
| FXEGTFISDYXIAMDKIHQQDFVNWLLAQKGKKNDWKHNITQH (4CN-Phe at 1; Aib at 2; A5c at 11) [(4CN-Phe^1, Aib^2, A5c^11, His^43)hGIP(1-43)-OH] | 5.12 |
| XXEGTFISDYXIAMDKIHQQDFVNWLLAQKGKKNDWKHNITQH (hTyr at 1; Aib at 2; A5c at 11) [(hTyr^1, Aib^2, A5c^11, His^43)hGIP(1-43)-OH] | 9.42 |
| XXEGTFISDYXIAXDKIHQQDFVNWLLAQKGKKNDWKHNITQH (3MeO-Tyr at 1; Aib at 2; A5c at 11 and 14) [(3MeO-Tyr^1, Aib^2, A5c^11, 14, His^43)hGIP(1-43)-OH] | 9.34 |
| XXEGTFISDYXIAMDKIHQQDFVNWLLAQKGKKNDWKHNITQH (7HO-Tic at 1; Aib at 2; A5c at 11) [(7HO-Tic^1, Aib^2, A5c^11, His^43)hGIP(1-43)-OH] | 4.82 |
| XXEGTFISDYXIAMDKIHQQDFVNWLLAQKGKKNDWKHNITQH (3MeO-Tyr at 1; Aib at 2; A5c at 11) [(3MeO-Tyr^1, Aib^2, A5c^11, His^43)hGIP(1-43)-OH] | 3.9 |
| [Desaminotyrosyl]A[Hyp]GTF[Ac6c]SDYSIAMDKIHQQDFVNWLLAQKGKKNDWKHNITQ-OH [(4Hppa^1, 4Hyp^3, A6c^7)hGIP(1-42)-OH] | 251 |
| [Desaminotyrosyl]A[Pip]GTF[Ac6c]SDYSIAMDKIHQQDFVNWLLAQKGKKNDWKHNITQ-OH [(4Hppa^1, hPro^3, A6c^7)hGIP(1-42)-OH] | 707 |
| XXEGTFISDYXIAMDKIHQQDFVNWLLAQK (4Hppa at 1; Aib at 2 and 11; C-terminal amide) [(4Hppa^1, Aib^2, 11)hGIP(1-30)-NH2] | 15.4 |
